Measured values: patent US20220073620A1 (CHANGCHUN GENESCIENCE PHARMACEUTICAL, published 2022)

T1: human VEGF-A-His (human, UniProt P15692 207-395)
T1 construct: also called hVEGF-A
T1 sequence: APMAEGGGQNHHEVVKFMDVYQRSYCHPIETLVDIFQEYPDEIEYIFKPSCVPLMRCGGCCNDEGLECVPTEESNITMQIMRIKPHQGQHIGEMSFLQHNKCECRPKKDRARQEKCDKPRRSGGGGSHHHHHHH


Columns and labels:
[1] = biological target: VEGFA protein (UniProt P15692-4 27-191, limits assumed); experiment: cell-based or functional assay
[2] = biological target: T1, human VEGF-A-His; experiment: SPR (Biacore T200), human VEGF-A-His coupled to the chip, fusion protein flowed over
Procedure: The affinities of FabT and FTF were detected by Biacore T200 instrument. The specific protocols were as follows. Human PD-L1-His (constructed by GeneScience, SEQ ID NO: 11) and human VEGF-A-His (constructed by GeneScience, SEQ ID NO: 13) were coupled to CMS biosensor chip (GE), and then the antibodies of different concentrations were flowed through the chip at a flow rate of 30 μL/min. The binding between the candidate antibody and antigen was performed with a binding time of 120 s and a dissociation time of 300 s. The kinetic fitting was performed using BIAevalution software (GE), and the results of affinity constants were obtained as shown in Table 6 and Table 7.

[3] = biological target: T2, Human PD-L1-His (human, UniProt Q9NZQ7 19-238); experiment: bridging ELISA, hPDL1-His and hVEGF121b-mFc as the two antigens; control diluted from 10 ug/ml
T2 construct: also called hPD-L1

[4] = biological target: PDL1 on the surface of CHO-PDL1-CD3L cells (UniProt Q9NZQ7 19-290, limits assumed); experiment: cell-based or functional assay
Chain of PDL1 on the surface of CHO-PDL1-CD3L cells (Q9NZQ7 19-290 limits assumed): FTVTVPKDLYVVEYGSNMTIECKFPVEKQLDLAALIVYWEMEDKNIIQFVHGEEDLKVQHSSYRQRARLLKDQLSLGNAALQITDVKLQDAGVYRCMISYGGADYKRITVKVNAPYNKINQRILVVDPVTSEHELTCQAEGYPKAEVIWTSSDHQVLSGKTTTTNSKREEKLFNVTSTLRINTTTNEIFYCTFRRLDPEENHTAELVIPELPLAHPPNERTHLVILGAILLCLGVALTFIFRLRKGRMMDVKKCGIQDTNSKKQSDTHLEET

T2 sequence (Q9NZQ7 19-238 limits assumed): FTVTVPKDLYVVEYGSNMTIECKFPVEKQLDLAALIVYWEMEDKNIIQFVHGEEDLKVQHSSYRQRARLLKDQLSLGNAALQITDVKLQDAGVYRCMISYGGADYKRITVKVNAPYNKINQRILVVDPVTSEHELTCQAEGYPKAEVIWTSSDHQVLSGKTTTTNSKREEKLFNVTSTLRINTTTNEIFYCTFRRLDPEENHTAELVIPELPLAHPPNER

Row | IC50, luciferase reporter in NFAT-RE-Luc2P-KDR-HEK293 cells stimulated with 50 ng/ml VEGFA [1] | Kd [2] | koff [2] | kon [2] | binding result [3] | EC50, luciferase reporter in Jurkat-PD1-NFAT cells co-cultured with CHO-PDL1-CD3L cells [4] | Binder
1 | 0.75 nM | 1.51 nM | 0.000932 s⁻¹ | 617000 M⁻¹ s⁻¹ | no binding (tested: 10 ug/ml) | – | Eylea positive fusion protein (Fc fusion, not shown: a dimerising Fc or GST, also called control molecule Eylea) SDTGRPFVEMYSEIPEIIHMTEGRELVIPCRVTSPNITVTLKKFPLDTLIPDGKRIIWDSRKGFIISNATYKEIGLLTCEATVNGHLYKTNYLTHRQTNTIIDVVLSPSHGIELSVGEKLVLNCTARTELNVGIDFNWEYPSSKHQHKKLVNRDLKTQSGSEMKKFLSTLTIDGVTRSDQGLYTCAASSGLMTKKNSTFVRVHEK
2 | – | – | – | – | – | 3.55 nM | anti-human PD-L1 humanized monoclonal antibody 047 Ab-6 (antibody, V domains shown) VH: EVQLVESGGGLVQPGGSLRLSCAASYFPFSDSWIHWVRQAPGKGLEWVAWISPYGGSSYYADSVQDRFTISADTSKNTAYLQMNSLRAEDTAVYYCAKRHWPGGFDHWGQGTLVTVSS VL: DIQMTQSPSSLSASVGDRVTITCSASQDVTTAVAWYQQKPGKAPKLLIYSASFPYRGVPSRFSGSGSGTDFTLTISSLQPEDFATYYCQQYMYHPSTFGQGTKVEIK
